Data from patent CN104862283A (UNIV JINAN, dated 2015).

Biological target: T1, 人肌红蛋白(Human Myoglobin) (human, UniProt P02144 2-154)
T1 construct: mature; Native protein, bought; also called 人肌红蛋白标准抗原; ABCam ab77876
T1 sequence (looked up): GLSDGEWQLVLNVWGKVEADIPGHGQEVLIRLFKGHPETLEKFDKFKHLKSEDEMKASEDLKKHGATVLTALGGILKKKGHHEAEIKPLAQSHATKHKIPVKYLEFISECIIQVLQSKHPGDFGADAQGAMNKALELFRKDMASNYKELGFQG
Experiment: indirect ELISA, human myoglobin coated at 300 ng/ml, purified antibody in two-fold dilutions from 1:10 000

Row | Binder | 效价 (titer, antibody dilution at OD450 about 1.0) [dilution fold] | 效价 (titer, antibody dilution at OD450 about 1.0) (dilution fold)
1 | 鼠源抗人肌红蛋白单克隆抗体5M7 (antibody) chain 1: VQLQESGAELARPGASVKLSCKASGYTFTIYWMQWVKQRPGQGLEWIGSIYPGDGDTRYNQKFKGKATFTADKSSSTAYMQLISLASEDSAVYYCATGLYYGYDEGHWYFDVWGQGTTV chain 2: DIVMSQSPASLAVSLGQRATISYRASKSVSTSGYSYMHWNQQKPGQPPRLLIYLVSNLESGVPARFSGSGSGTDFTLNIHPVEEEDAATYYCQHIR | ≥ 1e+06 | 
2 | 鼠源抗人肌红蛋白单克隆抗体3M4 (antibody, V domains shown) VH: VKLQESGGGLVQPGGSMKLSCVASGFNFSSYWMSWVRQSPEKGLEWVAEIRLKSDNYATHYAESVKGKFTISRDDSKSSLYLQMNNLRTEDTGIYFCADHGLTGHWGQGTTVTVSS VL: LTQSPAIMSASPGEKVTLTCSASSSVSSSYLYWYQQKPGSSPKIWIYSTSNLAFGVPDRFSGSGSGTSYSLTISTMEAEDAASYFCHQWSSYPFTFGAGTKLE |  | > 1e+06
